Key:
[1] = target: H4K16ac nucleosome (Xenopus | not stated); assay: native gel or EMSA
[2] = target: unmodified nucleosome (Xenopus); assay: native gel or EMSA

With “catalytic domain of yeast Dot1 (residues 158 to 582) (from UniProt Q04089 158-582) (domain or fragment)” the Kd [1] was 83.3 nM and the Kd [2] was 70.8 nM.
